Here are results for one substance from article doi:10.1101/2025.09.07.674715.

In this assay the target is GAPS4a of GAPS4^MAVP-R (Vibrio parahaemolyticus MAVP-R) (Vibrio parahaemolyticus MAVP-R). Nature of the assay: SEC-MALS. (In general: SEC sorts molecules by how far they enter the pores of the column.)

“GAPS4b of GAPS4^MAVP-R (Vibrio parahaemolyticus MAVP-R) (natural protein)” had a stoichiometry N (GAPS4b per GAPS4a (2:2)) of 1.
